Measured values from PMC8956199, “The mismatched nucleotides encoded in vaccinia virus flip-and-flop hairpin telomeres serve an essential role in virion maturation”.

Columns and labels:
[1] = biological target: T1, I1 telomere-binding protein (UniProt P16714 1-312); experiment: EMSA, competition; 700 ng poly d(IC), 0-300 ng unlabeled S hairpin; reference; settings: protein: recombinant; tags: His6 (pET151/D-TOPO vector); label: 3' fill-in with Alexa Fluor 647-aha-dUTP (Results say Cy5-dUTP)
T1 sequence: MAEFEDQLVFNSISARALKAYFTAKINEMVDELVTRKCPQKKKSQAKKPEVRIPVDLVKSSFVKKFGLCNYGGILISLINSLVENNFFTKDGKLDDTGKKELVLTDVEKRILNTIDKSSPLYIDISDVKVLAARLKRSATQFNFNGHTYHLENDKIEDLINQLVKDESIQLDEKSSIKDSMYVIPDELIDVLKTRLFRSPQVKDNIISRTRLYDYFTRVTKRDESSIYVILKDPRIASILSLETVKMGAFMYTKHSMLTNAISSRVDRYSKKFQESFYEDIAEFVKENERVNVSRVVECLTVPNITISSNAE

[2] = biological target: T1, I1 telomere-binding protein; experiment: EMSA, competition; 700 ng poly d(IC), 0-300 ng unlabeled S hairpin; behaved much like S; settings: protein: recombinant; tags: His6 (pET151/D-TOPO vector); label: 3' fill-in with Alexa Fluor 647-aha-dUTP (Results say Cy5-dUTP)

B1: S hairpin (VACV WR telomere, wild type) (structured_DNA)
DNA: ACATTTTTTTCTAGACACTAAATAAAATATTTAAAATATAATATTAATGTACTAAAACTTATATATTATTAATTTATCTAACTAAAGTTAGTAAATTATATATATAATTTTATAATTAATTTAATTTTACTAATTTTATTTAGTGTCTAGAAAAAAA
modifications: 5' phosphate
B1: binds [1].

B2: SΔ1–3 hairpin (structured_DNA)
DNA: ACATTTTTTTCTAGACACTAAATAAAATATTTAAAATATAATATTAATGTACTAAAATTATATATTAATTTACTAACTAAAGTTAGTAAATTAATATATAATTTTATAATTAATTTAATTTTACTAATTTTATTTAGTGTCTAGAAAAAAA
modifications: 5' phosphate
B2: binds [2].
